In patent publication US20220267443A1 (published 2022):

What was measured:
Experiment in all cases: SPR
[1] = target: recombinant human CTLA-4-Fc (R&D Systems, #7268-CT) (UniProt P16410 36-161)
[2] = target: recombinant cynomolgus CTLA-4-Fc (Sino Biological, #90213-C02H)
Human CTLA-4 monomer = target: Human CTLA-4 monomer
[3] = target: Cynomolgus CTLA-4 monomer

Chain of recombinant cynomolgus CTLA-4-Fc (Sino Biological, #90213-C02H) (chain, as listed by the source C02H): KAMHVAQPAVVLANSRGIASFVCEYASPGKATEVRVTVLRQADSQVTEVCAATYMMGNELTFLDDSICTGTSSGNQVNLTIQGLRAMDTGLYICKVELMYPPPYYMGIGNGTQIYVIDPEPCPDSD
Chain of recombinant human CTLA-4-Fc (R&D Systems, #7268-CT) (P16410 36-161): as the sequence (chain, as listed by the source C02H) above, with N14S, M106L counted along it

Kd [1]: 1.7 nM | Kd [2]: 4.4 nM | Kd (Human CTLA-4 monomer): 2 nM | Kd [3]: 2.1 nM
B1: AGEN2041w (antibody)
heavy: EVQLVESGGGLVKPGGSLRLSCAASGFTFSSYSMNWVRQAPGKGLEWVSSISSSSSYIYYADSVKGRFTISRDNAKNSLYLQMNSLRAEDTAVYYCARVGLMGPFDIWGQGTMVTVSSASTKGPSVFPLAPCSRSTSESTAALGCLVKDYFPEPVTVSWNSGALTSGVHTFPAVLQSSGLYSLSSVVTVPSSNFGTQTYTCNVDHKPSNTKVDKTVERKCCVECPPCPAPPVAGPSVFLFPPKPKDTLMISRTPEVTCVVVDVSHEDPEVQFNWYVDGVEVHNAKTKPREEQFNSTFRVVSVLTVVHQDWLNGKEYKCKVSNKGLPAPIEKTISKTKGQPREPQVYTLPPSREEMTKNQVSLTCLVKGFYPSDIAVEWESNGQPENNYKTTPPMLDSDGSFFLYSKLTVDKSRWQQGNVFSCSVMHEALHNHYTQKSLSLSPG
light: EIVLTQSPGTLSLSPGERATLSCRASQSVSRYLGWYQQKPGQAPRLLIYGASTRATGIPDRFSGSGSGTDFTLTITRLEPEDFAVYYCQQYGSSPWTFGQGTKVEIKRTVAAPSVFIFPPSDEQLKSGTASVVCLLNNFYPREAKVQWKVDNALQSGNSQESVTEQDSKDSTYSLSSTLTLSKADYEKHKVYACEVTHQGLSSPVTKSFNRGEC
